Positions of bridges follow the written chain, without caps; N, C: chain ends. Non-standard residues stand in square brackets, D forms with d. R8 = C=CCCCCCC[C@@](C)(N)C(=O)O; S5 = C=CCCC[C@](C)(N)C(=O)O
B1: Cross-linked peptide #5 (peptide)
peptide: IWIAQALXAIGDAFNAYYA
modifications: N-terminal Ac; Cit at residue 8 (column 153); $r8 at residue 9 (column 154) and $ at residue 16 (column 161), crosslinked; C-terminal NH2
B2: Cross-linked peptide #1 (peptide)
peptide: Ac-IWIAQALR[R8]IGDEFN[S5]YYA-NH2
modifications: staple 9-16
SMILES: CC[C@H](C)[C@H](NC(C)=O)C(=O)N[C@@H](Cc1c[nH]c2ccccc12)C(=O)N[C@H](C(=O)N[C@@H](C)C(=O)N[C@@H](CCC(N)=O)C(=O)N[C@@H](C)C(=O)N[C@@H](CC(C)C)C(=O)N[C@@H](CCCNC(=N)N)C(=O)N[C@]1(C)CCCCCCC=CCCC[C@@](C)(C(=O)N[C@@H](Cc2ccc(O)cc2)C(=O)N[C@@H](Cc2ccc(O)cc2)C(=O)N[C@@H](C)C(N)=O)NC(=O)[C@H](CC(N)=O)NC(=O)[C@H](Cc2ccccc2)NC(=O)[C@H](CCC(=O)O)NC(=O)[C@H](CC(=O)O)NC(=O)CNC(=O)[C@H]([C@@H](C)CC)NC1=O)[C@@H](C)CC
B3: Cross-linked peptide #2 (peptide)
peptide: Ac-IWIAQALR[R8]IGDQFN[S5]YYA-NH2
modifications: staple 9-16
SMILES: CC[C@H](C)[C@H](NC(C)=O)C(=O)N[C@@H](Cc1c[nH]c2ccccc12)C(=O)N[C@H](C(=O)N[C@@H](C)C(=O)N[C@@H](CCC(N)=O)C(=O)N[C@@H](C)C(=O)N[C@@H](CC(C)C)C(=O)N[C@@H](CCCNC(=N)N)C(=O)N[C@]1(C)CCCCCCC=CCCC[C@@](C)(C(=O)N[C@@H](Cc2ccc(O)cc2)C(=O)N[C@@H](Cc2ccc(O)cc2)C(=O)N[C@@H](C)C(N)=O)NC(=O)[C@H](CC(N)=O)NC(=O)[C@H](Cc2ccccc2)NC(=O)[C@H](CCC(N)=O)NC(=O)[C@H](CC(=O)O)NC(=O)CNC(=O)[C@H]([C@@H](C)CC)NC1=O)[C@@H](C)CC
B4: Cross-linked peptide #9 (peptide)
peptide: Ac-IWIAQALR[R8]IADQFN[S5]YYA-NH2
modifications: staple 9-16
SMILES: CC[C@H](C)[C@H](NC(C)=O)C(=O)N[C@@H](Cc1c[nH]c2ccccc12)C(=O)N[C@H](C(=O)N[C@@H](C)C(=O)N[C@@H](CCC(N)=O)C(=O)N[C@@H](C)C(=O)N[C@@H](CC(C)C)C(=O)N[C@@H](CCCNC(=N)N)C(=O)N[C@]1(C)CCCCCCC=CCCC[C@@](C)(C(=O)N[C@@H](Cc2ccc(O)cc2)C(=O)N[C@@H](Cc2ccc(O)cc2)C(=O)N[C@@H](C)C(N)=O)NC(=O)[C@H](CC(N)=O)NC(=O)[C@H](Cc2ccccc2)NC(=O)[C@H](CCC(N)=O)NC(=O)[C@H](CC(=O)O)NC(=O)[C@H](C)NC(=O)[C@H]([C@@H](C)CC)NC1=O)[C@@H](C)CC
B5: Cross-linked peptide #10 (peptide)
peptide: Ac-IWIAQALR[R8]AGDQFN[S5]YYA-NH2
modifications: staple 9-16
SMILES: CC[C@H](C)[C@H](NC(C)=O)C(=O)N[C@@H](Cc1c[nH]c2ccccc12)C(=O)N[C@H](C(=O)N[C@@H](C)C(=O)N[C@@H](CCC(N)=O)C(=O)N[C@@H](C)C(=O)N[C@@H](CC(C)C)C(=O)N[C@@H](CCCNC(=N)N)C(=O)N[C@]1(C)CCCCCCC=CCCC[C@@](C)(C(=O)N[C@@H](Cc2ccc(O)cc2)C(=O)N[C@@H](Cc2ccc(O)cc2)C(=O)N[C@@H](C)C(N)=O)NC(=O)[C@H](CC(N)=O)NC(=O)[C@H](Cc2ccccc2)NC(=O)[C@H](CCC(N)=O)NC(=O)[C@H](CC(=O)O)NC(=O)CNC(=O)[C@H](C)NC1=O)[C@@H](C)CC
B6: Cross-linked peptide #7 (peptide)
peptide: Ac-IWIAQALR[R8]IGDAAN[S5]YYA-NH2
modifications: staple 9-16
SMILES: CC[C@H](C)[C@H](NC(C)=O)C(=O)N[C@@H](Cc1c[nH]c2ccccc12)C(=O)N[C@H](C(=O)N[C@@H](C)C(=O)N[C@@H](CCC(N)=O)C(=O)N[C@@H](C)C(=O)N[C@@H](CC(C)C)C(=O)N[C@@H](CCCNC(=N)N)C(=O)N[C@]1(C)CCCCCCC=CCCC[C@@](C)(C(=O)N[C@@H](Cc2ccc(O)cc2)C(=O)N[C@@H](Cc2ccc(O)cc2)C(=O)N[C@@H](C)C(N)=O)NC(=O)[C@H](CC(N)=O)NC(=O)[C@H](C)NC(=O)[C@H](C)NC(=O)[C@H](CC(=O)O)NC(=O)CNC(=O)[C@H]([C@@H](C)CC)NC1=O)[C@@H](C)CC
B7: Cross-linked peptide #3 (peptide)
peptide: Ac-IWIAAALR[R8]IGDEFN[S5]YYA-NH2
modifications: staple 9-16
SMILES: CC[C@H](C)[C@H](NC(C)=O)C(=O)N[C@@H](Cc1c[nH]c2ccccc12)C(=O)N[C@H](C(=O)N[C@@H](C)C(=O)N[C@@H](C)C(=O)N[C@@H](C)C(=O)N[C@@H](CC(C)C)C(=O)N[C@@H](CCCNC(=N)N)C(=O)N[C@]1(C)CCCCCCC=CCCC[C@@](C)(C(=O)N[C@@H](Cc2ccc(O)cc2)C(=O)N[C@@H](Cc2ccc(O)cc2)C(=O)N[C@@H](C)C(N)=O)NC(=O)[C@H](CC(N)=O)NC(=O)[C@H](Cc2ccccc2)NC(=O)[C@H](CCC(=O)O)NC(=O)[C@H](CC(=O)O)NC(=O)CNC(=O)[C@H]([C@@H](C)CC)NC1=O)[C@@H](C)CC
B8: Cross-linked peptide #8 (peptide)
peptide: Ac-IWIAQALR[R8]IGDQAN[S5]YYA-NH2
modifications: staple 9-16
SMILES: CC[C@H](C)[C@H](NC(C)=O)C(=O)N[C@@H](Cc1c[nH]c2ccccc12)C(=O)N[C@H](C(=O)N[C@@H](C)C(=O)N[C@@H](CCC(N)=O)C(=O)N[C@@H](C)C(=O)N[C@@H](CC(C)C)C(=O)N[C@@H](CCCNC(=N)N)C(=O)N[C@]1(C)CCCCCCC=CCCC[C@@](C)(C(=O)N[C@@H](Cc2ccc(O)cc2)C(=O)N[C@@H](Cc2ccc(O)cc2)C(=O)N[C@@H](C)C(N)=O)NC(=O)[C@H](CC(N)=O)NC(=O)[C@H](C)NC(=O)[C@H](CCC(N)=O)NC(=O)[C@H](CC(=O)O)NC(=O)CNC(=O)[C@H]([C@@H](C)CC)NC1=O)[C@@H](C)CC
B9: Cross-linked peptide #13 (peptide)
peptide: Ac-IWIAQAAR[R8]IGDAFN[S5]YYA-NH2
modifications: staple 9-16
SMILES: CC[C@H](C)[C@H](NC(C)=O)C(=O)N[C@@H](Cc1c[nH]c2ccccc12)C(=O)N[C@H](C(=O)N[C@@H](C)C(=O)N[C@@H](CCC(N)=O)C(=O)N[C@@H](C)C(=O)N[C@@H](C)C(=O)N[C@@H](CCCNC(=N)N)C(=O)N[C@]1(C)CCCCCCC=CCCC[C@@](C)(C(=O)N[C@@H](Cc2ccc(O)cc2)C(=O)N[C@@H](Cc2ccc(O)cc2)C(=O)N[C@@H](C)C(N)=O)NC(=O)[C@H](CC(N)=O)NC(=O)[C@H](Cc2ccccc2)NC(=O)[C@H](C)NC(=O)[C@H](CC(=O)O)NC(=O)CNC(=O)[C@H]([C@@H](C)CC)NC1=O)[C@@H](C)CC
B10: Cross-linked peptide #11 (peptide)
peptide: Ac-IWIAQALA[R8]IGDAFN[S5]YYA-NH2
modifications: staple 9-16
SMILES: CC[C@H](C)[C@H](NC(C)=O)C(=O)N[C@@H](Cc1c[nH]c2ccccc12)C(=O)N[C@H](C(=O)N[C@@H](C)C(=O)N[C@@H](CCC(N)=O)C(=O)N[C@@H](C)C(=O)N[C@@H](CC(C)C)C(=O)N[C@@H](C)C(=O)N[C@]1(C)CCCCCCC=CCCC[C@@](C)(C(=O)N[C@@H](Cc2ccc(O)cc2)C(=O)N[C@@H](Cc2ccc(O)cc2)C(=O)N[C@@H](C)C(N)=O)NC(=O)[C@H](CC(N)=O)NC(=O)[C@H](Cc2ccccc2)NC(=O)[C@H](C)NC(=O)[C@H](CC(=O)O)NC(=O)CNC(=O)[C@H]([C@@H](C)CC)NC1=O)[C@@H](C)CC
B11: Cross-linked peptide #12 (peptide)
peptide: Ac-IWIAQALR[R8]IGNAFN[S5]YYA-NH2
modifications: staple 9-16
SMILES: CC[C@H](C)[C@H](NC(C)=O)C(=O)N[C@@H](Cc1c[nH]c2ccccc12)C(=O)N[C@H](C(=O)N[C@@H](C)C(=O)N[C@@H](CCC(N)=O)C(=O)N[C@@H](C)C(=O)N[C@@H](CC(C)C)C(=O)N[C@@H](CCCNC(=N)N)C(=O)N[C@]1(C)CCCCCCC=CCCC[C@@](C)(C(=O)N[C@@H](Cc2ccc(O)cc2)C(=O)N[C@@H](Cc2ccc(O)cc2)C(=O)N[C@@H](C)C(N)=O)NC(=O)[C@H](CC(N)=O)NC(=O)[C@H](Cc2ccccc2)NC(=O)[C@H](C)NC(=O)[C@H](CC(N)=O)NC(=O)CNC(=O)[C@H]([C@@H](C)CC)NC1=O)[C@@H](C)CC
B12: Cross-linked peptide #4 (peptide)
peptide: Ac-IWIAAALR[R8]IGDQFN[S5]YYA-NH2
modifications: staple 9-16
SMILES: CC[C@H](C)[C@H](NC(C)=O)C(=O)N[C@@H](Cc1c[nH]c2ccccc12)C(=O)N[C@H](C(=O)N[C@@H](C)C(=O)N[C@@H](C)C(=O)N[C@@H](C)C(=O)N[C@@H](CC(C)C)C(=O)N[C@@H](CCCNC(=N)N)C(=O)N[C@]1(C)CCCCCCC=CCCC[C@@](C)(C(=O)N[C@@H](Cc2ccc(O)cc2)C(=O)N[C@@H](Cc2ccc(O)cc2)C(=O)N[C@@H](C)C(N)=O)NC(=O)[C@H](CC(N)=O)NC(=O)[C@H](Cc2ccccc2)NC(=O)[C@H](CCC(N)=O)NC(=O)[C@H](CC(=O)O)NC(=O)CNC(=O)[C@H]([C@@H](C)CC)NC1=O)[C@@H](C)CC
B13: Cross-linked peptide #16 (peptide)
peptide: IWIAQALRALGDAFNAYFA
modifications: not fully specified; N-terminal Ac; $r8 at residue 9 (column 154) and $ at residue 16 (column 161), crosslinked; hL at residue 10 (column 155); F4F at residue 18 (column 163); C-terminal NH2

Target: T1, MCL-1 (UniProt Q07820 172-327, limits assumed)
T1 construct: Target of the Ki columns; also called Myeloid cell leukemia 1
Assay: Ki (Table 6); method not stated

T1 sequence (Q07820 172-327 limits assumed): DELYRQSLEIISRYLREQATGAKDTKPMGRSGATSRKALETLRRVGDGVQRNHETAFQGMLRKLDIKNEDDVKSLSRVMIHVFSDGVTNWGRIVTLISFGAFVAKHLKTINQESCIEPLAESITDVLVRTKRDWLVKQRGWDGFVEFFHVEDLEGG

Binder	Ki
B1	7.5 nM
B2	1.8 nM
B3	5.2 nM
B4	116 nM
B5	122 nM
B6	7.5 nM
B7	1 nM
B8	1.4 nM
B9	501 nM
B10	73.8 nM
B11	195 nM
B12	6 nM

Target: T2, BCL-XL (UniProt Q07817 1-209)
T2 construct: Target of the Ki columns
Assay: Ki (Table 6); method not stated

T2 sequence (Q07817 1-209): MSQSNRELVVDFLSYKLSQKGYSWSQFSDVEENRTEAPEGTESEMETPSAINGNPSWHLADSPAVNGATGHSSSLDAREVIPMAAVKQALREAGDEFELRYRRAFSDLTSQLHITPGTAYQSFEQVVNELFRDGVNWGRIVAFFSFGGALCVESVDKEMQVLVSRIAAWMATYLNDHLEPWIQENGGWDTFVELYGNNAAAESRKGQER

Binder	Ki
B1	110 nM
B2	1.4 nM
B3	12 nM
B4	7.7 nM
B5	1.9 nM
B6	402 nM
B7	1 nM
B8	24.9 nM
B9	100000 nM
B10	386 nM
B11	416 nM
B12	4 nM

Target: T3, BCL-2 (UniProt P10415 1-217, limits assumed)
T3 construct: Target of the Ki columns
Assay: Ki (Table 6); method not stated

T3 sequence (P10415 1-217 limits assumed): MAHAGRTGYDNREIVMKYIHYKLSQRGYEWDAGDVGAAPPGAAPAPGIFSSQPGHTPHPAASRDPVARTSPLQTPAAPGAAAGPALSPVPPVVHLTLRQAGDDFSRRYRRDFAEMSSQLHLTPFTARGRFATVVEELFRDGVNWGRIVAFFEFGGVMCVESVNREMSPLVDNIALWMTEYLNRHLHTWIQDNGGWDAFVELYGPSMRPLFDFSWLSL

Binder	Ki
B1	212 nM
B2	3.2 nM
B3	67 nM
B4	25.6 nM
B5	4.8 nM
B6	140 nM
B7	6 nM
B8	43.9 nM
B9	100000 nM
B10	1090 nM
B11	405 nM
B12	22 nM

Target: T1, MCL-1
Assay: Ki (Table 8); method not stated

Binder	Ki
B13	27 nM

Target: T2, BCL-XL
Assay: Ki (Table 8); method not stated

Binder	Ki
B13	13 nM

— patent US20180273587A1 (AILERON THERAPEUTICS, published 2018)
